Laboratory results as given in US20140072613A1, “Compositions and Methods for Treating Cutaneous Scarring” (priority 2012, published 2014).

Experiments:
Assay in all cases: biochemical
Format in all cases: biochemical
[1] = biological target: 266 human kinases (Homo sapiens, UniProt O14757); conditions: CHK1(h); 100 μM
Method in brief: (§1)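 A filter-capture radiometric assay: phosphorylated cationic substrate binds an anionic membrane and is scintillation-counted, with values referenced to full-activity control.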

[2] = biological target: 266 human kinases (Homo sapiens, UniProt P16234, D842V); conditions: PDGFRα(D842V)(h); 100 μM
Method in brief: as §1

[3] = biological target: T1, 266 human kinases (Homo sapiens, UniProt P21709); conditions: EphA1(h); 100 μM
T1 sequence (P21709 26-976): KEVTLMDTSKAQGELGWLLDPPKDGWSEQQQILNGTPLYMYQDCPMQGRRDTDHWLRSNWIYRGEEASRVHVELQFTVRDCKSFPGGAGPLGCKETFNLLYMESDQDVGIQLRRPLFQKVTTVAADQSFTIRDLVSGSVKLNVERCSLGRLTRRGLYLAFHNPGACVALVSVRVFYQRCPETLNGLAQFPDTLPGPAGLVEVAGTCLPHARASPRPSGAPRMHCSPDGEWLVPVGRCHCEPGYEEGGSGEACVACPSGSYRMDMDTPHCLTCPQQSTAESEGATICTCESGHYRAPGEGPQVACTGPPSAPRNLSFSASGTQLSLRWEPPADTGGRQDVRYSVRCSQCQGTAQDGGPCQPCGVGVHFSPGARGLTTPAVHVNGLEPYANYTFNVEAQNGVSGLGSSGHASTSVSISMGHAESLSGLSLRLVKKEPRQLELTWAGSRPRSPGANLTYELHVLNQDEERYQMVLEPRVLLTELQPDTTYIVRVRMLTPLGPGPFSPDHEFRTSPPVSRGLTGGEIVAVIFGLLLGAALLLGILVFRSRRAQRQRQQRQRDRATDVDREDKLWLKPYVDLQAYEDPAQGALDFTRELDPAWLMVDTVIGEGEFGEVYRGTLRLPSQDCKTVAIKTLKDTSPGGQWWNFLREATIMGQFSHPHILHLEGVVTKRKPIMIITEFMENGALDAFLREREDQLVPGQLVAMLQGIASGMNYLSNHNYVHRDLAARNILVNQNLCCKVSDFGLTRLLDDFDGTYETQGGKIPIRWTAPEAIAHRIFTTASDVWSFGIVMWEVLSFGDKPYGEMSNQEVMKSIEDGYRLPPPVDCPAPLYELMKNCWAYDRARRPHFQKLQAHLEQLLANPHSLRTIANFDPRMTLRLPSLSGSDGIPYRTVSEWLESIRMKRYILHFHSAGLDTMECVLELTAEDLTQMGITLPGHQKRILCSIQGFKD
Method in brief: as §1

[4] = biological target: 266 human kinases (Homo sapiens, UniProt P57059); conditions: SIK(h); 100 μM
Method in brief: as §1

[5] = biological target: T2, 266 human kinases (Homo sapiens, UniProt Q13188); conditions: MST2(h); 100 μM
T2 sequence (Q13188 1-491): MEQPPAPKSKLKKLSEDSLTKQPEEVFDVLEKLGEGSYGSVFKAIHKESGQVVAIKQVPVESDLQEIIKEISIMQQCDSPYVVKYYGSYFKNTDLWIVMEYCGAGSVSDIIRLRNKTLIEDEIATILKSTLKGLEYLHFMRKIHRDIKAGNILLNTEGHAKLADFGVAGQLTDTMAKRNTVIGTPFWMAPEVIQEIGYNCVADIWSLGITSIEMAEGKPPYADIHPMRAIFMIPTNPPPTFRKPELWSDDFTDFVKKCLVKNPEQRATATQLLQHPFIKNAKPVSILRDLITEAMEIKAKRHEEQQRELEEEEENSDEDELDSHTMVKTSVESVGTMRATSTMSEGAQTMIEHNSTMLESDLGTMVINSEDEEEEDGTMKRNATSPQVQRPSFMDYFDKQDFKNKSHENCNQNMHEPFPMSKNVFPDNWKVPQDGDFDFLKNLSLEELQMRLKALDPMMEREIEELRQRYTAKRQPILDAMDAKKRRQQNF
Method in brief: as §1

[6] = biological target: 266 human kinases (Homo sapiens, UniProt Q16539); conditions: SAPK2a(h); 100 μM
Method in brief: as §1

[7] = biological target: 266 human kinases (Homo sapiens, UniProt Q5VT25); conditions: MRCKα(h); 100 μM
Method in brief: as §1

[8] = biological target: 266 human kinases (Homo sapiens, UniProt Q86Y07); conditions: VRK2(h); 100 μM
Method in brief: as §1

[9] = biological target: 266 human kinases (Homo sapiens, UniProt Q9Y5S2); conditions: MRCKβ(h); 100 μM
Method in brief: as §1

Sequence of 266 human kinases (Homo sapiens, UniProt Q5VT25) (Q5VT25 whole entry): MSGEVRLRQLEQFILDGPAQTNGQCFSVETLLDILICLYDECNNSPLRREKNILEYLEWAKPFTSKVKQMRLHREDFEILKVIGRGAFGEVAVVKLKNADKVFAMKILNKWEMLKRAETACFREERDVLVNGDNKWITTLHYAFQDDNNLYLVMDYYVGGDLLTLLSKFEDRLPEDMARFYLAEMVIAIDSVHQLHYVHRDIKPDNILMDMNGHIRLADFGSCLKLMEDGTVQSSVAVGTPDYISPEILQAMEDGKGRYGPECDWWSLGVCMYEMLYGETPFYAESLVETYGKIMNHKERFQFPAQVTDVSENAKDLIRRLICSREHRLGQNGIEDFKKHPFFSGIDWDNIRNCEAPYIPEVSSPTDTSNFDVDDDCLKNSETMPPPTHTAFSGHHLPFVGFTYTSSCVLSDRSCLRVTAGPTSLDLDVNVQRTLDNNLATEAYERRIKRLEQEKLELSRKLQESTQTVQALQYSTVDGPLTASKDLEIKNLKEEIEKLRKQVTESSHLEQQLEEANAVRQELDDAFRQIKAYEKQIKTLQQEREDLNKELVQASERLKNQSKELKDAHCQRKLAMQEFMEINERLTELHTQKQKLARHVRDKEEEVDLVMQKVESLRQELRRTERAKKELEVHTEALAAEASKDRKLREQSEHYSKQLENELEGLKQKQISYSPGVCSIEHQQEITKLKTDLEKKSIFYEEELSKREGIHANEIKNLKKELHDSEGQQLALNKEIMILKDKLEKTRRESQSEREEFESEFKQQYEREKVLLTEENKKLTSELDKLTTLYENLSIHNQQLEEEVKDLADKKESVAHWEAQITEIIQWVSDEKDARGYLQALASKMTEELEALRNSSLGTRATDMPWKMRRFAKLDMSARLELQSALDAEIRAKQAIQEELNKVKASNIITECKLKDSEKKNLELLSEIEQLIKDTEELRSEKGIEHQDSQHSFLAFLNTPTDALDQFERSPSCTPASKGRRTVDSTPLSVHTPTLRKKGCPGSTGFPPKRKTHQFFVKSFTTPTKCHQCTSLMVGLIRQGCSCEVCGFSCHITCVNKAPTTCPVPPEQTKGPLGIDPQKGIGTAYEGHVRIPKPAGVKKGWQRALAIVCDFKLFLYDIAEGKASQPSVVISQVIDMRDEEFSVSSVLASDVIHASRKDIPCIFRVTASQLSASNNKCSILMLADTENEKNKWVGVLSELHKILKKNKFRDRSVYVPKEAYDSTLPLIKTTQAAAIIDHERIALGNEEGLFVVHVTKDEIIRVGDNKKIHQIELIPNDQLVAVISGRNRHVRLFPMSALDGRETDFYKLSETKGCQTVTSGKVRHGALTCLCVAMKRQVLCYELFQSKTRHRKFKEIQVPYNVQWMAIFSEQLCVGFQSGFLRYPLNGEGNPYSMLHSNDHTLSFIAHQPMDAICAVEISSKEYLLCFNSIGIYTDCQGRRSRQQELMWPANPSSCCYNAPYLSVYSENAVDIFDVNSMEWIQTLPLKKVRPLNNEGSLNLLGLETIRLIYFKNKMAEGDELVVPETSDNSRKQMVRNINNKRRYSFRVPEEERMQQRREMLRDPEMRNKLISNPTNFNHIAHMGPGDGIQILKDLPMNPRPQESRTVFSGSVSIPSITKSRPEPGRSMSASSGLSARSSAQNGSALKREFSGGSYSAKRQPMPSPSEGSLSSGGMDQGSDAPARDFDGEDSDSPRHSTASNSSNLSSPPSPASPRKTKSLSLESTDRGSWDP
Sequence of 266 human kinases (Homo sapiens, UniProt O14757) (O14757 whole entry): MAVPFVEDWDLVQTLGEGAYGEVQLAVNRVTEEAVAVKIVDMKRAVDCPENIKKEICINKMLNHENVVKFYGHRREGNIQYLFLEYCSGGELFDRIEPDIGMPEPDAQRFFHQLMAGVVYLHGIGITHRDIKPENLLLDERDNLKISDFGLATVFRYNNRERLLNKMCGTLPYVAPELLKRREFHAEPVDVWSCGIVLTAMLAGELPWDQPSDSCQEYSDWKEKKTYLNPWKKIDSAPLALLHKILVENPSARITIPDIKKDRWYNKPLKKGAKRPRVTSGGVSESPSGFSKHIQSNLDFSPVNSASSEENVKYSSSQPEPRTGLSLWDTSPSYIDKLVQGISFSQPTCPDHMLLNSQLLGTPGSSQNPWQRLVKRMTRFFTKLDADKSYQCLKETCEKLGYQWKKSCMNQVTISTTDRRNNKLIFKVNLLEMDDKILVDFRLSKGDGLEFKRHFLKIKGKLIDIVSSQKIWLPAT
Sequence of 266 human kinases (Homo sapiens, UniProt P16234, D842V) (P16234 24-1089 D842V): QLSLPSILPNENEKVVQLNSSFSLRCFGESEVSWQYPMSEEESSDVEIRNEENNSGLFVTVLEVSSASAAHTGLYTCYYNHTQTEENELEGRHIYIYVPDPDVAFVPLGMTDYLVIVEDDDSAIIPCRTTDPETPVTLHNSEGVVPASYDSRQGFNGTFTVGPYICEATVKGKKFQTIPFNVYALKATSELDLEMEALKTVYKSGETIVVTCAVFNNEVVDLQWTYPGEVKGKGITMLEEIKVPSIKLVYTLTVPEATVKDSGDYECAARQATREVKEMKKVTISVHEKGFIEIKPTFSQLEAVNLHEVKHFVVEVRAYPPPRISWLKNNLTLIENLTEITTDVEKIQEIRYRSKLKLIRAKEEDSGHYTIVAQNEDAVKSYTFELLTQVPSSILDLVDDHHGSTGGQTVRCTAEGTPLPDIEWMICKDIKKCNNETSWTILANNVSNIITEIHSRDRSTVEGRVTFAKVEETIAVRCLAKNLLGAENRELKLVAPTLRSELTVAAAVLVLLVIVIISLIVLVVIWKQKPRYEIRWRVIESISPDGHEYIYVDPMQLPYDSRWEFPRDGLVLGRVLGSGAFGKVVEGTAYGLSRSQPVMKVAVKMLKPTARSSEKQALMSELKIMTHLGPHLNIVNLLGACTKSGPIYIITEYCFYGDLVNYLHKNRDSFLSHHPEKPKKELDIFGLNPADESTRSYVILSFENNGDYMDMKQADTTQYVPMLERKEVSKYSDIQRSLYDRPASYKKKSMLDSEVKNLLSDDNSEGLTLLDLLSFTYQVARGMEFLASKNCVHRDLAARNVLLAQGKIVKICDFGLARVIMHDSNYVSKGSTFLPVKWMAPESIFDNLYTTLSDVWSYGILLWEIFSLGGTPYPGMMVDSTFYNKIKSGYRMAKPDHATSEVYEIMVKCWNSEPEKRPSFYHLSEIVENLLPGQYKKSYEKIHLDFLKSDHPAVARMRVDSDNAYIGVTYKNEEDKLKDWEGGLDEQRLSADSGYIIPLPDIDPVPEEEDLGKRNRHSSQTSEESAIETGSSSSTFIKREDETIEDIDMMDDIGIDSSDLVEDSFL
Sequence of 266 human kinases (Homo sapiens, UniProt Q86Y07) (Q86Y07 whole entry): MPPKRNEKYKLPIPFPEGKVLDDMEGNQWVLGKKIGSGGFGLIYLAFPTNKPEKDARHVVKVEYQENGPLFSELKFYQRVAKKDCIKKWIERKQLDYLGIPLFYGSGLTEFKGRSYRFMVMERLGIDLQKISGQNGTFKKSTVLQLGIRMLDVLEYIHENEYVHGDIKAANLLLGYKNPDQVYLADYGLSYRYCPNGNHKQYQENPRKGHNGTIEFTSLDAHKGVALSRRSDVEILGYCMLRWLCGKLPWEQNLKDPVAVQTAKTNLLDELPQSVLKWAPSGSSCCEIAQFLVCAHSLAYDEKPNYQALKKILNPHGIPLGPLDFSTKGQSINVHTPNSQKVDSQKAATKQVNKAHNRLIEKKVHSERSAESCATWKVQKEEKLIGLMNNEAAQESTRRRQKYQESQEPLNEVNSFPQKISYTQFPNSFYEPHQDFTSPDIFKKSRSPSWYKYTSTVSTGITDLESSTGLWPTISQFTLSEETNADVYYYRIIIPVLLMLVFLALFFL
Sequence of 266 human kinases (Homo sapiens, UniProt P57059) (P57059 whole entry): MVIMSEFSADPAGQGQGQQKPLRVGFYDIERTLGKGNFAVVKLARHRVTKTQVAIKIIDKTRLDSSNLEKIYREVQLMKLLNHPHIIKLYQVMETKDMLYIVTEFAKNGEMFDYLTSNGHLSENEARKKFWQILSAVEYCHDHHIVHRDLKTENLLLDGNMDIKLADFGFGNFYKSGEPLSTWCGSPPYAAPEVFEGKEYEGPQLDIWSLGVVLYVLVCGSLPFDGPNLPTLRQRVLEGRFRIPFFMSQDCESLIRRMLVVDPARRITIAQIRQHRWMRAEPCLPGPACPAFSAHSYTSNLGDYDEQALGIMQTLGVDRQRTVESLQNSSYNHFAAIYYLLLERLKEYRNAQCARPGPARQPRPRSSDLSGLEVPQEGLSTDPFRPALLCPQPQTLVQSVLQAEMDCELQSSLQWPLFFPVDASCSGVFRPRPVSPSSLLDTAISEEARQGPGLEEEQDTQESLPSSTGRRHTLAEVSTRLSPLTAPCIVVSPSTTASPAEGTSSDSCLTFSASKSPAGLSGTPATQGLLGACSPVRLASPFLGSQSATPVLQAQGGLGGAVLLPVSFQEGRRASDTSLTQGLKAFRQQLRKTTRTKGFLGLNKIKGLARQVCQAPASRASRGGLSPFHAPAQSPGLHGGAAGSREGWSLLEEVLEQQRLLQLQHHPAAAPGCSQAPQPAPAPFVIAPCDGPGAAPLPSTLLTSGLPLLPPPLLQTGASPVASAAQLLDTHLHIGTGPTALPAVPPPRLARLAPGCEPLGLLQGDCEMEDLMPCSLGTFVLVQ
Sequence of 266 human kinases (Homo sapiens, UniProt Q16539) (Q16539 whole entry): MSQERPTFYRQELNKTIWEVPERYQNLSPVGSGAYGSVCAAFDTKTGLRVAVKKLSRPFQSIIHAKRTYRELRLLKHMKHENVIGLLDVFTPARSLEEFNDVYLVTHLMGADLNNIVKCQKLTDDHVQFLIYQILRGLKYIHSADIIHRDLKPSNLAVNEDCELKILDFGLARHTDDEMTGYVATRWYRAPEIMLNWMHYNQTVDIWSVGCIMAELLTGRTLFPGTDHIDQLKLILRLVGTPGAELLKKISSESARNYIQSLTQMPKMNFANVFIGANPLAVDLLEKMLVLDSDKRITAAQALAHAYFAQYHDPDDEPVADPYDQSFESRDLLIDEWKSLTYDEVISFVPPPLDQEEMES

HRRIKAWLKKIKALARQLGVAA (mammal) [MMI-0500]
% activity [1]: 65% | % activity [2]: 170% | % activity [3]: 40% | % activity [4]: 40% | % activity [5]: 2% | % activity [6]: 52% | % activity [7]: 5% | % activity [8]: 169% | % activity [9]: −10%
